# From the nanobody polyreactivity screen of Harvey et al. (2022)
# Test: yeast display, Sf9 membrane polyspecificity reagent, FACS + sequencing; frameworks hold sequencing errors
# Procedure, shortened: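 A synthetic nanobody library was expressed on Saccharomyces cerevisiae BJ5465 by galactose induction for 36–48 hours. The library was stained for 1 hour at 4 °C with 10% biotinylated, detergent-solubilized Sf9 membrane reagent and enriched with streptavidin microbeads before FACS. Low and high (top ~1%) gates were set on anti-HA fluorescence for expression and streptavidin fluorescence for reagent binding, and each polyreactivity label reflects the gate of origin.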
row,Sequence,polyreactivity (PSR sort gate)
1,QVQLVESGGGLVQAGGSLRLSCAASGSIFGTYAMGWYRQAPGKAREFVADISAIGTSTYYADSVKGRFTISRDNAKNTVYLQMNSLKPEDTAVYYCAAESFDTVEYDYWGQGTQVTVSS,low polyreactivity
2,QVQLVESGGGLVQAGGSLRLSCAASGITFPVYTMGWYRPAPVKERELVAAITSSGGSTYYADSVKGRFTISRDNAKNTVYLQMISLKQEDTAVYYCAARDYGRHHSYGYWGQGTQVTVSS,high polyreactivity
3,QVHLVESGGGLVQAGGSLRLSCAASGLIFSDYAMGWYRQAPGKERELVAAIRSGGRTYYADSVKGRFTISRDNAKNTVYLQMNSLKPEDTAVYYCNKLYRRSPVPREYDYWGQGTQVTVSS,high polyreactivity
4,QVHHVESGGVLVQAGRILRVSCAASGSTFPRNAMGWYRHAPGKERELDAAITSRGGRTYYADSVKGRFTISRDNAKNTVYLQMISLKPEDTAVYYCARVGGIGSGRTGYGYWGQGSQVTVSS,high polyreactivity
5,QVQLVESGGGLVQAGGSLRLSCAASGSTSVYYAMGWYRQTPGKERELVAAINWNGGRTYYADSVKGRFTISRDNAKNTVYLQMNSLKPEDTAVYYCATDSGDGEGDYWGQGTQVTVSS,low polyreactivity
6,QVQLVESGGGLVQAGGSVRLSCAASGRIFQPYAMGWYRQAPGKEREWVAAITRRAGSTYYADSVKGRFTISRDNALNTVYLQLNSLKPEDTAVSYCAARGLYWAYEMEYWGQGTQVTVSS,low polyreactivity
7,QVQLVESGGGLVQAGGSLRLSCAASGRTFFGYAMGWYRQAPGKERELVAAISSGGSTYYADSVKGRFTISRDNAKNTVYLQMYSLKPEDTAVYYCATAFYYYTSGTTLLFRYDYWGQGTQVTVSS,low polyreactivity
8,QVQLVESGGGLVQAGGSLRLSCAASGGTFVANTMGWYRQAPGKERELVAAITWSGGRTYYADSVKGRFTISRDNAKNTVYLQMNSLKPEDTAVYYCNADYYRKAESSPEGYDYWGQGTQVTVSS,high polyreactivity
9,QVQLVDSGGGLVQAGGSLRLSCAASGSTFVTYAMRWYRQAPVKERELVAAITEDGASTYYADSVKGRFTISRDNAKNTVYFQLNSLYPEDTAVYYCAADPTYWPVWYVLYDYWGQGTQVTVSS,low polyreactivity
10,QVQLVESGGGLVQAGGSLRLSCAASGFIFPRYAMGWYRPAPGTERELVAAISRSGGITRYADSVKGRFTISRDNAKNTVYLQINSLKPEDTAVYYCAAYIQGWVTAEWVRDDYWGQGTQVTVSS,high polyreactivity
11,QVQLVESGGGLVQAGGSLRLSCAASGGTFWIYAMGWYRQAPGKERELVAGISHGDSTYYADSVKGRFTISRDNAKNTVYLQMNSLKPEDTAVYYCARDYRNPPFAYEYWGQGTQVTVSS,low polyreactivity
12,QVQLVESGGGLVQAGGSLRLSCAASGFTFYLYTMGWYRQAPGKERELVATITSDGGTNYADSVKGRFTISRDNAKYTVYLQMNSLKPEDTAVYYCNAASRRGSRKQAKYDYWGQGTQVTVSS,low polyreactivity
13,QVQLVESGGGLVQAGGSLRLSCAASGLIFPDYDMGWYIQAPGKERELVAAISIGGVSTYYADSVKGRFTISRDNAKNTVYLQMNSLKPEDTAVYYCAAYYSYVYYVGDSDDYWGQGTQVTVSS,low polyreactivity
14,QVQLEESGGGLVQAGGSLRLSCAASGFIFFKYAMGWYRQAPGKEREFVAAISKSGTSTYYADSVKGRFTISRDNAKNTVYLQMNSLKPEDTAVYYCAKRYLTRYKGYYYWGQGTQVTVSS,high polyreactivity
15,QVQLVESGGGIVQAGGSLRLSCAASGSIFKTNPMGWYRQAPGKERELVADISPSSGRTYYADSVKGRFTISRDNSKNTVYLQMNCLKPDDTAVYYCNRLSRRGYDYWGQGTQVTVSS,high polyreactivity
16,QVQLVESGGGLVQAVGSLRLSCAASGRTLSRNAKGWYRQAPGKEREFVAAISSRGTSTYYADSVKGRFTISRDNAKNSVYLQMNSLKPEDTAVYYCATTLGGNYGYDYWGQGTQVTVSS,high polyreactivity
17,QVQLVESGGGLVHAGRSLRLSCAPSGSTFSIYDMGWSRQAPGKERELVAAISGSGSRTYYADSVKGRFTISRDNAKNTVYLQMNSLKPEDTALYYCAARGRHRDGFDFNYWGQGTQVTVSS,high polyreactivity
18,QVQLVESGGGLVQAGGSLRLSCAASGRTSWYYAMGWYRQAPGKERELVAAITASGGSTYADSVKWRFTISRDNAKNTVYLQMNSLKPEDTAVYYCAAERPYSRVGYYYWGQGTQVTVSS,high polyreactivity
19,QVQLVESGGGLVQAGGSLRLSCAASGITFYSYTMGWYRQAPGKERELVAAISDNGGRTFYADSVKGRFTISRDNAKNTVYLQMNSLKPEDTAVDYCAADYSYYTSFRYDYWGQGTQVTVSS,low polyreactivity
20,QVQLVESGGGLVQAGASLRLSCAASGHIFDSYAMGWYRQAPGKERELVAAITSGGSTYYADSVKGRFTISRDYAKNTVYLQMNSLKSEDTAVYYCATELGAAGDDSWGQGTQVTVSS,low polyreactivity
21,QVQLVESGGGLVQAGGSLRLSCAASGRIFGGYAMGWYRQAPGKERELVAAISGSGGRTYYADSVKGRFTISRDNAKNTVYLQMNSLKPEDTAVYYCNKGYVYGHEYWGQGTQVTVSS,high polyreactivity
22,QVQLVESGGGLVQAGGSLRLSCAAYGFIYRYYAMGWNRQAPGKERELVPGISVSGGGTYYADSVKGRFTISRDNAKNTVNLQMNSLKPEDTAVYYCAAERTFLYWAYDYWGQGTQVNVSS,high polyreactivity

row,Sequence,polyreactivity (PSR sort gate)
1,QVQLVESGGGLVQAGGSLRLSCAASGFTFRYYAMGWYRQAPGKERELVAAISYRGGRTYYADSVKGRFTISRDNAKNTVYLQMNSLKPEDTAVYYCAVDYTLADVIYDYWGQGTQVTVSS,high polyreactivity
2,QVQLVESGGGLVQAGGSLRLSCAASGRTFRHDGMGWYRQAPGKERELVAAISRSGGRTYYADSVKGRFTISRDNAKNTVYLQMNSLKPEDTAVYYCNAPYDVTTYAFDYWGQGTQVTVSS,high polyreactivity
3,QVQLVESGGGLVQAGGSLRLSCAASGRIFDHYAMGWYRQAPGKERELVAAITRSGGITYYADSVKGRFTISRDNAKNTVYLQMNSLKPEDTAVYYCAALSYRYTDKFDYWGQGTQVTVSS,low polyreactivity
4,QVQLVESWGGLVQAGGSLRLSCAASGSTFIGYAMGWYRQAPGKERELVAAISWSGGSTYYADSVKGRFTISRDNAKNTVYLQMNSLKPEDTAVYYCAASQYVQGHKYYYWGQGTQVTVSS,high polyreactivity
5,QVQLVESGGGLVQAGGSLRLSCAASGYTFSDNAMGWYRPAPGKERELVAAITSGVSTYYADSVKGRFRISRDNAKNSVYLQMNSLNPEDTAVYYCAAEPDTYWYTYDYWGQGTQVTVSS,low polyreactivity
6,QVQLVESGGGLGQAGGSLRLSCAASGSTFYLNAMGWYRQATGKERELVAAINSGDSTNYADSVKGRFTISRDNAKNTVYLQMNSLKPEDTAVYYCARDRFPSEGDYWGQGTQVTVSS,low polyreactivity
7,QVQLVESGGGLVQAGGSLRLSCAASGRTFPGYAMGWYRQAPGTEMEMVAAISSGGGTKYADSVKGRFTISRDNAKYTVYVQMNSLKPEDTAVFYCAARGGTYHWGRYYWRQYDYWGQGTQVTVSS,high polyreactivity
8,QVQIVDSGGGLVQAGGSLRLSCDASGRLISRKAMGWYRQAPGKERELVAAITSGGSTYYADSVKGRFTISRDNAKNTVYLQMNSLKPEDTAVYYCAAVYRGVDSRWYCYDYWGQGTQVTVSS,low polyreactivity
9,QVQLVESGGGLVQAGGSLRLSCAASGLIFVQNAMGWYRQAPGKERELVAAISSRGTNTYYADSVKGRFTISRDNAKNTVYLQMNSLKPEDTAVYYCAKPLKTPRPNYDYWGQGTQVTVSS,low polyreactivity
10,QVQLVESGGGLVQAGGSLRLSCAASGRTFRYYVMGWYRQAPGKERELVAAINRRGDNTYYADSVKGRLTISRDNAKNTVYLQMNSLKPEDTAVYYCAARREPYQYNQYYSWGQGTQVTVSS,high polyreactivity
11,QVQLVESGGGLVQAGGSLRLSCAASGRILVLNAMGWYRQAPGKERELVADITSGGSTYYADSVKGRFTISRDNAKNTVYLQMNSLKPEDTAVYYCAADLPYSLDYRSEDDYWGQGTQVTVSS,low polyreactivity
12,QVQLVESGGALVQAGGSLRLTCAASGSIYYVNAMGWYRQAPGKERELVAAISVRGGRTYYADSVKGRFTISRDNAKNTFYLQMNSLKPEDTEVYYCATRISTVGRYDYWGQGTQVTVSS,high polyreactivity
13,QVQLVESGGRLVQAGGSLRLSCAASGSIFGFNAMGWYRQAPGKERELVAAIIYGGSTNYADSVKGRFTISRDNEKNTVYLQMNSQKPEDTAVYYCAARLNYIRRGYWGQGTQVTVSS,high polyreactivity
14,QVQLVESGGGLVQAGGSLRLSCAASGRIFGVNAMGWYRQAPGKERELVAAITSGGSTNYADSVKGRFTISRDNAKNTVYLQMNSLKPEDTAVYYCAAVNYYWGQGTQVTVSS,low polyreactivity
15,QVQLVESGGGLVQAGGSLRLSCAASVRTFYYYAMGWYRQAPGKERELVAAIRWSTGSTYYADSVKGRFTISRDNAQNTVYLQMNSLKPEDTAVYYCAADTWYIQWGYYWGQGTQVTVSS,low polyreactivity
16,QVQLVESGGGLVQAGGSLRLTCAASGRILGYNDMGWYRHAPGKERELVPTSSGTSTYYADSVKGRFTISRDNAKNTVYLQMNSLKPEVTAVYYCNTDYVITLPAYDYWGQGTQVTVSS,low polyreactivity
17,QVQLVESGGGLVQAGGILRLSCAASGSIFRNYAMGWYRQAPGKERELVAAISVRGGSTYYADSVKGRFTISRDNTKNTVYLQMNSLKPEDTAVYYCNARTYYPVYYRDGGYWGQGTQVTVSS,high polyreactivity
18,QVQLVESGGGLVQAGGSRRLRCAASGSTFDVYAMGWYRQAPGKESELVAVINTSGTRTYYADSVKGRFTISRDNAKNTVYLQMNSLKPEDTAVYSCNAGGHLEMNYWGQGTQVTVSS,low polyreactivity
19,QVQLVESGGGLVQAGGSLRLSCAASRLTFNTYTIGWYRQAPGKERELVAGRSKSGGRTYYADSVKGRFTISRDNAKITVYLQMNILKAEDTSVYYCSTRSTTDFYWGHGTQVTVSS,high polyreactivity
20,QVQLVESGGGLVQAGGSLRLSCAASGYTFGGNAMGWYRQAPGKERELVAAISNTGGRTNYADSVKGRFTISRDNAKNTVYLQMNSLKPEDTAVSYCAKSVYYRDRYGGDYWGQGTQVTVSS,low polyreactivity
21,QVQLVESGGGLVQAGGSLRLSCAASGRTLPKYVMGWYRQAPGKERELVAAISSSGDSTYYADSVKGRFTISRDNAKNTVYLQMNSLKPEDTAVYYCGKYDLNTYGYWGQGTQVTVSS,low polyreactivity
